Test results taken from patent US20230051701A1 (Bristol-Myers Squibb, published 2023).
Values joined by “and” are separate entries in the source; they are usually repeats but may differ in a detail not shown here. Identical values can stand only once.

Experiments:
[1] = target: T1, human CD73 on cells (Calu6, NCI-H292, SK-MEL-24, human tumor cell lines, human B and T cells) (human, UniProt P21589 27-549); experiment: cell-based or functional assay
T1 sequence: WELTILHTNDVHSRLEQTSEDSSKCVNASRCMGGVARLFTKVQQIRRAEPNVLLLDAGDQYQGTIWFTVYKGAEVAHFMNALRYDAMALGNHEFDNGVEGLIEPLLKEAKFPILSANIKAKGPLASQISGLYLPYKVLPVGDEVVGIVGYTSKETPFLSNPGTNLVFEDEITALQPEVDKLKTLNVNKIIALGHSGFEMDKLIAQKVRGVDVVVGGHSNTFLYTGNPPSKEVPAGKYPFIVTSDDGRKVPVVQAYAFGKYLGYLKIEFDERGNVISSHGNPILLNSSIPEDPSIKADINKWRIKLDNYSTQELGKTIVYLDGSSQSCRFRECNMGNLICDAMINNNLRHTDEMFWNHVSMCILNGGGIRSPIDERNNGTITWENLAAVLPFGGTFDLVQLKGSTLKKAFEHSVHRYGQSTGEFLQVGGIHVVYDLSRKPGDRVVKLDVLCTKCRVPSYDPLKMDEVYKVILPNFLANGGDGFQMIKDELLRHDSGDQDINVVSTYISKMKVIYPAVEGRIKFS

[2] = target: T2, cynomolgus CD73 on transfected CHO cells (cynomolgus, UniProt P21589 27-549 (human entry)); experiment: flow cytometry, CHO-cynoCD73 cells, anti-human IgG secondary (unstained 4.81, sec only 18.5)
T2 construct: also called CHO-cynoCD73; cyno CD73 positive CHO cells
T2 chain: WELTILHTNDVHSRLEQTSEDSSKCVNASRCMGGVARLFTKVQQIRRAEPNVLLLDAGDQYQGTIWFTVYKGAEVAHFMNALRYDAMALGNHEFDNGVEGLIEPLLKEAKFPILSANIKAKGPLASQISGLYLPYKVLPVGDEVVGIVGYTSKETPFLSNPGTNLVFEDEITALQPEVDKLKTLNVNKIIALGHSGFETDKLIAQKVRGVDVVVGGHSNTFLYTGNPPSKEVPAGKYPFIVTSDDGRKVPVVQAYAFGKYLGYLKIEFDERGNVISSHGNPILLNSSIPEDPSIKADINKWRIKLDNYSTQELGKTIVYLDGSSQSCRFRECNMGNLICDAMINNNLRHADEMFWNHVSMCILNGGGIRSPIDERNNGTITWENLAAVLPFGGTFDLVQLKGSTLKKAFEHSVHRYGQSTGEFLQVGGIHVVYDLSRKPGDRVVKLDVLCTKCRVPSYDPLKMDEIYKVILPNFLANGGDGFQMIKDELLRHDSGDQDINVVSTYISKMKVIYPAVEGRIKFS

[3] = target: T1, human CD73 on cells (Calu6, NCI-H292, …); experiment: cell-based or functional assay; remark: listed apart in the source
[4] = target: T3, rhCD73 bound to his-tag magnet beads (human, UniProt P21589 27-549, limits assumed); experiment: cell-based or functional assay
T3 sequence: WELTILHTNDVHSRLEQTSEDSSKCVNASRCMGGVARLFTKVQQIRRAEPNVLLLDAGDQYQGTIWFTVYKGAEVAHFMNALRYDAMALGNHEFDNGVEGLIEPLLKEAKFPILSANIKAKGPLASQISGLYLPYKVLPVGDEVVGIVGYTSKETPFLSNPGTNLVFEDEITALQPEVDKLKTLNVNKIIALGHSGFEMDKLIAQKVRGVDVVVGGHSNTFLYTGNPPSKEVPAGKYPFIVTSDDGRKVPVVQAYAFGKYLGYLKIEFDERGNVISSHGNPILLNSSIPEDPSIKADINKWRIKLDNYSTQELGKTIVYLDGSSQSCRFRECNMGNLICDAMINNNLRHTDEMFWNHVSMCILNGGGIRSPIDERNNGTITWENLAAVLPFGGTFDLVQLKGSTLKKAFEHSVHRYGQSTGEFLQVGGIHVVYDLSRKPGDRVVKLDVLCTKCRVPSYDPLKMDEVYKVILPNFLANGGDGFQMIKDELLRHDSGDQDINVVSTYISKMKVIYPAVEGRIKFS

[5] = target: T1, human CD73 on cells (Calu6, NCI-H292, …); experiment: cell-based or functional assay; remark: listed apart in the source
[6] = target: T4, N-terminal domain of hCD73 (residues 26-336 of human CD73), His-tagged (human, UniProt P21589 26-336); experiment: SPR, mAb captured on protein A
T4 construct: also called N-hCD73; N-hCD73-his
T4 sequence: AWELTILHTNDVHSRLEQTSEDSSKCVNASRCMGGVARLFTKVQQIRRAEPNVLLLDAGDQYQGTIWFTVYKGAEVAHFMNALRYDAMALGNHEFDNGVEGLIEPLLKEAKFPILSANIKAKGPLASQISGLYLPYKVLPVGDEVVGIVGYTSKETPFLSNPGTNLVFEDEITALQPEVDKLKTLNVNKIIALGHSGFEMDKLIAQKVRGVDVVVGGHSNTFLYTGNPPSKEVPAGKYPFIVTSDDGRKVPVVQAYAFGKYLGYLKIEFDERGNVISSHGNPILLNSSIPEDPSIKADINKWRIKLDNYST
Method: For these experiments, protein A (Pierce) was immobilized to a density of 3000 — 4000 RU on flow cells 1-4 of a CM5 sensor chip (GE Healthcare) using standard ethyl(dimethylaminopropyl) carbodiimide (EDC)/N-hydroxysuccinimide (NHS) chemistry, with ethanolamine blocking, in a running buffer of 0.01 M HEPES pH 7.4, 0.15 M NaCl, 3 mM EDTA, 0.005% v/v tween 20. […] The running buffer for the kinetic experiments was 10 mM sodium phosphate, 130 mM sodium chloride, 0.05% tween 20, pH 7.1. The surfaces were regenerated after each cycle using two 30 s pulses of 10 mM glycine pH 1.5 at a flow rate of 30 μl/min. Sensogram data was double-referenced and then fitted to a 1:1 Langmuir model using Biacore T100 evaluation software v2.0.4, to determine the association rate constant (ka), the dissociation rate constant (kd), and the equilibrium dissociation constant (KD).

[7] = target: T2, cynomolgus CD73 on transfected CHO cells; experiment: flow cytometry, CHO-cynoCD73 cells, anti-human IgG secondary; column 'Kd (ng/mL)'
[8] = target: T2, cynomolgus CD73 on transfected CHO cells; experiment: flow cytometry, CHO-cynoCD73 cells
Method: Titration binding curves were produced with CD73 antibodies on Calu6 (CD73 endogenous expressors; human pulmonary adenocarcinoma cell line), DMS114 (CD73 negative; human small cell lung cancer cell line), CHO-cynoCD73 (cynoCD73-transfected) and CHO-K1 (cynoCD73 negative), cells using Alexa Fluor® 647 Goat Anti-Human IgG (H+L) as a secondary antibody, Invitrogen Cat#A-21445, using the following method: 100000 cells were plated in 100 uL PBS+2% FBS per well and blocked for 20 min. Using a U-bottom 96-deep well plate, volumes of antibody and PBS+2% FBS were combined as dictated by Table 12 below.
An 8-point serial dilution was performed by diluting a sixth of the volume (90 uL) into 450 μL PBS+2% FBS. The cell plate was spun down for 5 minutes at 1500 rpm. 100 uL of diluted antibody was added per well of the plate. 100 uL PBS+2% FBS were added to all other wells. […] The plates were spun down at 1500 rpm for 5 min and washed in 200 uL PBS +2% FBS per well. The plates were washed again, resuspended in 200 uL 2% FBS in PBS per well and the samples were run.

[9] = target: T1, human CD73 on cells (Calu6, NCI-H292, …); experiment: flow cytometry, Calu6 cells, anti-human IgG secondary (unstained -8.27, sec only 30.3)

B1: 11F11 (antibody, human IgG2, kappa, V domains shown)
VH: QVQLVESGGGVVQPGRSLRLSCATSGFTFSNYGMHWVRQAPGKGLEWVAVILYDGSNKYYPDSVKGRFTISRDNSKNTLYLQMNSLRAEDTAVYYCARGGSSWYPDSFDIWGQGTMVTVSS
VL: DIQMTQSPSSLSASVGDRVTITCRASQGISSWLAWYQQKPEKAPKSLIYAASSLQSGVPSRFSGSGSGTDFTLTISSLQPEDFATYYCQQYNSYPLTFGGGTKVEIKR
notes: Human IgG2 from hybridoma
In the case of B1, the “EC50 Calu6 inhibition” value [1] is reported as 0.7 nM, the “EC50 SKMEL24 inhibition” value [1] is reported as 3.15 nM and the “MFI at 0.07 ng/mL antibody” value [2] is reported as 200. For the same binder, the “MFI at 0.43 ng/mL antibody” value [2] was 342, the “MFI at 2.57 ng/mL antibody” value [2] was 670 and the “MFI at 15.43 ng/mL antibody” value [2] was 1150. The “MFI at 92.59 ng/mL antibody” value [2] was 1470, the “MFI at 555.56 ng/mL antibody” value [2] was 1640 and the “MFI at 3333.33 ng/mL antibody” value [2] was 1990. The “MFI at 20000 ng/mL antibody” value [2] was 2660, the “EC50 (nM), CD73 internalization, Calu6, 2 h” value [3] was 0.58 nM and the “Ymax, CD73 internalization, Calu6, 2 h” value [3] was 98 % of 100 nM 11F11. The “EC50 (nM), inhibition of bead-bound rhCD73 enzymatic activity” value [4] was 3.98 nM, the “Ymax, cAMP HTRF assay” value [5] was 76 % of 100 nM 11F11 and the Kd [6] was 1.6 nM and 0.56 nM. For the same binder, the Kd [7] was 0.0207 µg/mL, the EC50 [8] was 0.58 nM and the “MFI at 0.07 ng/mL antibody” value [9] was 788. The “MFI at 0.43 ng/mL antibody” value [9] was 1290, the “MFI at 2.57 ng/mL antibody” value [9] was 2250 and the “MFI at 15.43 ng/mL antibody” value [9] was 4830. The “MFI at 92.59 ng/mL antibody” value [9] was 12100, the “MFI at 555.56 ng/mL antibody” value [9] was 27400 and the “MFI at 3333.33 ng/mL antibody” value [9] was 29700. For the same binder, the “MFI at 20000 ng/mL antibody” value [9] was 36600.
